Measurements taken from patent US20260226158A1 (DE NOVO BIOTHERAPEUTICS, published 2026).
Residue numbers refer to the chain shown, from its start. Where two headings read alike, the source gives them in different places.

B1: 32C9F4 (antibody, human IgG4 S228P, kappa, V domains shown)
VH: QVQLQQPGAELVKPGASVKLSCKASGYTFTSYWMHWVKQRPGQGLEWIGMIHPNSGVTKYNEKFKSKATLTVDKSSSTAYMQLSSLTSEDSAVYFCAGDGRFAYWGQGTLVTVSA
VL: DIQMTQSPSSLSASLGERVSLTCRASQDIGSSLNWLQQEPDGTIKRLIYATSSLDSGVPKRFSGSRSGSDYSLTISSLESEDFVDYYCLQYASSPWTFGGGTKLEIKR
notes: Hybridoma screening; also called 2-2
B2: 28E10B12 (antibody, human IgG4 S228P, kappa, V domains shown)
VH: QVQLQQPGAELVKPGASVKLSCKASGYTFTSYWMNWVKQRPGQGLEWIGMIHPNSDITNYNEKFKSQATLTVDKSSSTAYMQLSSLTSEDSAVYYCARHGRFDYWGQGTTLTVSS
VL: B1 VL with S20T, W96F, G100S
notes: Hybridoma screening; also called 2-3
B3: 45A10D5 (antibody, human IgG4 S228P, kappa, V domains shown)
VH: B1 VH with V57S, K59N, F95Y, A97V, G98Y
VL: B1 VL with W96F, G100S
notes: Hybridoma screening; also called 2-1
B4: u6506gj130-1-10 (antibody, human IgG4 S228P, kappa, V domains shown)
VH: QVQLQQPGAELVKPGASVKLSCKASGYIFTSYWMHWVKQRPGQGLEWIGMIHPNSGSTNYNEKFKSKATLTVDKSSSTAYMQLSSLTSEDSAVYYCAREGNWARGYFEYWGQGTTLTVSS
VL: DIKMTQSPSSMYASLGERVTITCKASQDINSYLSWFQQKPGKSPKTLIYRANRLVDGVPSRFSGSGSGQDYSLTISSLEYEDVGMYYCLQYDEFPYTFGGGTKLEIKR
notes: Beacon screening
B5: u6506gj130-1-2 (antibody, human IgG4 S228P, kappa, V domains shown)
VH: EVQLQQSGPELVKPGASVKISCQASGYTFTDYYLNWVKQSHGKSLEWIGDIDPHNGGTSYNQKFKDKATLTVDKSSSTAYMELRSLTSEDSAVYYCARFPIYYSGSSPMDYWGQGTSVTVSS
VL: DIQMTQSPASLSASVGETVTITCRTNENIFSYLAWYQQKQGKSPQLLVYNAKTLAEGVPSRFSGSASGTQFSLKINTLQPEDFGSYYCQHHYGTPYTFGGGTKLEIIR
notes: Beacon screening

Key:
[1] = molecular target: T1, 6506GJ130-1A: Human NKP46 Recombinant Protein (His) (human, UniProt O76036 22-258, limits assumed); test: ELISA on coated human NKp46 protein (title 'Human NKp46'), HRP anti-human IgG, OD 450 nm [label printed on D00006]]
T1 construct: also called human NKp46 protein; not shown: His tag

[2] = molecular target: monkey NKp46 protein (monkey); test: ELISA on coated monkey NKp46 protein (title 'Cyno NKp46'), HRP anti-human IgG, OD 450 nm
[3] = molecular target: monkey NKp46 protein (monkey); test: as above; remark: listed apart in the source
Description: (§1) Human NKp46 protein and monkey NKp46 protein were each added at a concentration of 0.5 μg/mL to a 96-well plate and reacted for 1 hour at 37° C., followed by three washes with an appropriate volume of washing solution (0.05% Tween20, PBS), and then treated with 150 μL of blocking solution (1% BSA, PBS) for 1 hour at 37° C. After washing three times with an appropriate volume of washing solution (0.05% Tween20, PBS), the wells were treated with 3 serial dilutions of 1 μg/mL of anti-human NKp46 antibody at the maximum concentration and reacted for 1 hour at 37° C. […] The degree of binding between antigen and antibody was detected with 3′,5,5′-tetramethylbenzidine solution. Finally, the reaction was stopped by adding 1M HCl, and the absorbance was measured at 450 nm using an ELISA reader (Thermo Fisher Scientific). Four antibodies (1-2, 1-4-2, 1-8, and 1-10) that specifically bind to human NKp46 and monkey NKp46 were selected by the above two binding tests.

[4] = molecular target: T1, 6506GJ130-1A: Human NKP46 Recombinant …; test: ELISA on coated human NKp46 protein, HRP anti-human IgG, OD 450 nm [label printed at foot of D00002]]
Description: as §1

T1 sequence (O76036 22-258 limits assumed): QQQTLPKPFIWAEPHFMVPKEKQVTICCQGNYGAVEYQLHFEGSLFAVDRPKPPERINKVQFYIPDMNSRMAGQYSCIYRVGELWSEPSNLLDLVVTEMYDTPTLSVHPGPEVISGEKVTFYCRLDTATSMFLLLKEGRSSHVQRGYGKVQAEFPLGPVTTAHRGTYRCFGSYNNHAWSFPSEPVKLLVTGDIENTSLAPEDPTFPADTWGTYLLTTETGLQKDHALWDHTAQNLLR
monkey NKp46 protein (monkey), sequence (Q95JB9 22-257): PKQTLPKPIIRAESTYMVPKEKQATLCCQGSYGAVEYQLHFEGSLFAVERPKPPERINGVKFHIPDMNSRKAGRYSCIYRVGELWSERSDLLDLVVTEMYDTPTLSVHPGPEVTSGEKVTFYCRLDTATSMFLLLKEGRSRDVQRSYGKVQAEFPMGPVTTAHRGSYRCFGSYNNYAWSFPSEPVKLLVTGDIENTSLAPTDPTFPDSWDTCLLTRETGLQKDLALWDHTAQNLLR

Binder	EC50 (read off the curve) [1] [pM]	EC50 (read off the curve) [2] [pM]	EC50 (read off the curve) [3] [pM]	EC50 (read off the curve) [4] [pM]
B1	~50	~30	–	–
B2	~30	~30	–	–
B3	~50	~60	–	–
B4	–	–	~200	~200
B5	–	–	–	~200
